Patent US20100040631A1 (NEW YORK BLOOD CENTER, published 2010)

Biological target: T1, N46 (HIV-1)
T1 construct: Synthetic peptide from the gp41 N-terminal heptad repeat; Used at 8 uM in CD and 0.5 uM in the ELISA; also called NHR-peptide N46
Assay: competition ELISA: inhibition of six-helix bundle formation between N46 and C34-biotin (competitor), detected with mAb NC-1

B1: T-1249 (peptide)
peptide: WQEWEQKITALLEQAQIQQEKNEYELQKLDKWASLWEWF
notes: 39-mer hybrid polypeptide
B1 was tested, and the EC50 was 800 nM.
